Values belong to the molecule of their own block, whether it stands above or below them. Where a SMILES comes first, the peptide text is derived from it.
Tests used:
C5a receptor [1] = target: T1, C5a receptor (Homo sapiens, UniProt P21730); assay: C5a induced Ca++ rise assay in fura-2 loaded neutrophils; format: cell-based; conditions: for IC50 / EC50: Table 6, Example 10 comparison with decapeptide; for Concentration up to which tested with agonist activity not detected: calcium rise assay
T1 construct: Neutrophils were purified from human peripheral blood; endogenous in cells; host or cells: neutrophils from human peripheral blood
T1 sequence (P21730 1-350): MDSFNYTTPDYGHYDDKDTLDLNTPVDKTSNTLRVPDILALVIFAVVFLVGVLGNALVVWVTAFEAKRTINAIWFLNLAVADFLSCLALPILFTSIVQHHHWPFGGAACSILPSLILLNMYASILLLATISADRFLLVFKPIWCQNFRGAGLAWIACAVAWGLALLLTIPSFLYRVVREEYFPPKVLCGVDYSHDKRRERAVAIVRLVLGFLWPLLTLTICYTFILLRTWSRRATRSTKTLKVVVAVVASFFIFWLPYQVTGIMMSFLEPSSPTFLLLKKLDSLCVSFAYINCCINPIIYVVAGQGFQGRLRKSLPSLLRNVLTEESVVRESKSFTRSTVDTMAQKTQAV
Source text: The antagonism of the instant C5a analogues may be quantified as an IC50 in the calcium rise assay disclosed in Seligmann et al., Agents and Actions 21:375-378 (1987), described in detail in Example 7.
See Hugli et al., CRC Crit. Rev. Immunol. 1:321-326 (1981) and PCT WO 92/10205. A quantitative measure of this property may also be obtained using the calcium rise assay disclosed in Seligmann et al., supra, also described in Example 7. EC50 is a measure of agonistic activity.
Recombinant human C5a was dissolved in Hanks buffer containing 0.01% Tween-20, and all stock dilutions of C5a were made in this buffer. The acetoxymethyl ester of fura-2 (fura 2AM, Molecular Probes) was dissolved in DMSO. Neutrophils were purified from human peripheral blood by sedimentation in 6% hetastarch (HESPAN, DuPont, Waukegan, Ill., followed by counter flow elutriation as described in Chapman-Kirkland et al., J. Immunol. Meth. 142:95-104 (1991). Purified cells (2×10^6/ ml) were mixed with 0.2 uM fura- 2AM and incubated for 30 min at 37° C. in HEPES buffered Hanks solution without calcium or magnesium. Fifteen minutes before the assay, the cell suspension was transferred to a curvette containing a stir bar and calcium was added to 1 mM. The cell suspension was incubated with stirring at 37° C. Assays were terminated within 5 h of cell purification and a standard control response was obtained periodically to insure that the cell responses were not changing over the time of the experiment. The amount of fluorescence was determined using an SLM 8000 spectrofluorometer (SLM-Aminco Instruments, Urbana, Ill.). Curvettes were placed in the fluorometer and after obtaining a baseline for 10 sec, the C5a receptor antagonists to be tested for antagonistic properties were added and any change in fluoresence excitation ratio of 340 nm/380 nm (emission of 510 nm) was measured. Forty seconds after analogue addition, a challenge dose of C5a was added to a final concentration of 100 pM and the resulting change in excitation ratio was measured.
IC50 values were used as a measure of antagonist potency. These values are defined as the concentration of C5a analogue needed to reduce the calcium rise response of the 100 pM C5a challenge dose by 50%. EC50 values were used as a measure of agonist potency. […]

C5a receptor [2] = target: T1, C5a receptor; assay: Receptor binding assay: displacement of [125I]Bolton-Hunter labelled C5a from PMNL membranes
Experimental: C5a and C5a receptor antagonists were tested for their affinity for the C5a receptor. […] PMNLs were resuspended in Hanks balanced salt solution, without Ca^++ and Mg^++ and which contained 10 mM HEPES at pH 7.3, 2.5 mM MgCl2, 100 units/ml DNAse I, 0.1 mM PMSF, 10 μg/ml aprotonin and 10 μg/ml leupeptin. They were then equilibrated at 400 psi for 20 min at 4° C. in a nitrogen cavitation bomb. After evacuation into 3 volumes 0.5M KHCO3 containing 25 mM EDTA and the protease inhibitors listed above, the gelatinous material was removed with forceps and the mixture was centrifuged at 400×g for 10 min at 4° C. The resulting supernatant was centrifuged at 50,000×g for 60 min at 4° C. The pellets from the aliquots representing 200×10^6 cells were stored at -70° C. For binding studies, these membranes were resuspended at an equivalent of 20×10^6 cells/ml in 50 mM HEPES at pH 7.3, containing 1 mM CaCl2, 5 mM MgCl2, 0.1 mM PMSF, 0.1% bacitracin and 0.5% BSA.
Nonspecific binding was determined in the presence of 10 nM unlabelled C5a. The binding reaction was initiated by the addition of the PMNL membranes and was continued for 120 min at 4° C. Bound and free radioactivity were separated by vacuum filtration through GF/C glass fiber filters (Whatman), pretreated for 90 min with 0.05% PEI (polyethyleneimine) using a Cell Harvester (Brandel, Gaithersburg, Md.). Filters were washed with 3×5 ml of ice-cold 5 mM Tris buffer at pH 7.4 and counted in a multiwell Gamma counter (Genesys). Data were analyzed using the non-linear regression analysis program, RS/1 (Bolt, Beranek and Newman, Boston) and expressed as IC50 values. The results are set forth below in Table 4 as Ki values using the Cheng-Presoff equation. See Braunwalder et al., supra.

[3] = Table 6, Example 10 comparison with decapeptide
[4] = Table 4, [125I]BH-C5a 4.0 pM, PMNL membranes, Cheng-Prusoff

Molecule: CC[C@H](C)[C@H](N)C(=O)N[C@@H](CO)C(=O)N[C@@H](Cc1ccccc1)C(=O)N[C@@H](CCCCN)C(=O)N[C@@H](CC(=O)O)C(=O)N[C@@H](CCSC)C(=O)N[C@@H](CCC(N)=O)C(=O)N[C@@H](CC(C)C)C(=O)NCC(=O)N[C@@H](CCCNC(=N)N)C(=O)O [Decapeptide, reference compound] (H-ISFKDMQLGR-OH)
Agonist / antagonist character (C5a receptor [1]; stated in words): significant agonist activity

B1: C5a (1-68, T1M, C27S, K68C) (protein, UniProt P01031 678-745, looked up, variant T1M C27S K68C)
chain: MLQKKIEEIAAKYKHSVVKKCCYDGASVNNDETCEQRAARISLGPRCIKAFTECCVVASQLRANISHC
modifications: C5a anaphylatoxin
IC50 (C5a receptor [1]): 84 nM
Ki (C5a receptor [2]; [3]): 0.06 nM

B2: 8 Cys: cysteine-adduct of the C5a analogue No. 8 (protein, UniProt P01031 678-751, looked up, variant T1M C27S Q71C)
C5a anaphylatoxin: MLQKKIEEIAAKYKHSVVKKCCYDGASVNNDETCEQRAARISLGPRCIKAFTECCVVASQLRANISHKDMCLGR
modifications: C5a anaphylatoxin cysteine adduct
Ki (C5a receptor [2]; [4]): 2.8 nM

B3: C5a (1-73, T1M, C27S, G73C) (protein, UniProt P01031 678-751, looked up, variant T1M C27S G73C)
C5a anaphylatoxin: MLQKKIEEIAAKYKHSVVKKCCYDGASVNNDETCEQRAARISLGPRCIKAFTECCVVASQLRANISHKDMQLCR
modifications: C5a anaphylatoxin truncated to residues 1-73
notes: agonist, included for comparison
EC50 (C5a receptor [1]): 0.6 nM
Ki (C5a receptor [2]; [3]): 0.03 nM

B7: C5a: human C5a, a 74-amino acid polypeptide; recombinant human C5a used as reference agonist (protein, UniProt P01031 678-751, looked up)
C5a anaphylatoxin: TLQKKIEEIAAKYKHSVVKKCCYDGACVNNDETCEQRAARISLGPRCIKAFTECCVVASQLRANISHKDMQLGR
modifications: C5a anaphylatoxin
EC50 (C5a receptor [1]): 0.07 nM

B8: C5a (1-71, T1M, C27S) (protein, UniProt P01031 678-751, looked up, variant T1M C27S)
C5a anaphylatoxin: MLQKKIEEIAAKYKHSVVKKCCYDGASVNNDETCEQRAARISLGPRCIKAFTECCVVASQLRANISHKDMQLGR
modifications: C5a anaphylatoxin
notes: as for B3
Ki (C5a receptor [2]; [4]): 3 nM

B10: C5a (1-71, T1M, C27S, Q71S) (protein, UniProt P01031 678-751, looked up, variant T1M C27S Q71S)
C5a anaphylatoxin: MLQKKIEEIAAKYKHSVVKKCCYDGASVNNDETCEQRAARISLGPRCIKAFTECCVVASQLRANISHKDMSLGR
modifications: C5a anaphylatoxin
notes: as for B3
Ki (C5a receptor [2]; [4]): 7.5 nM

B12: C5a (1-71, T1M, C275, Q71D) (protein, UniProt P01031 678-751, looked up, variant T1M C27S Q71D)
C5a anaphylatoxin: MLQKKIEEIAAKYKHSVVKKCCYDGASVNNDETCEQRAARISLGPRCIKAFTECCVVASQLRANISHKDMDLGR
modifications: C5a anaphylatoxin
notes: as for B3
Ki (C5a receptor [2]; [4]): 8.5 nM

Further molecules by falling Ki (C5a receptor [2]; [4]), results first:

IC50 (C5a receptor [1]): 621 nM
Concentration up to which tested with agonist activity not detected (C5a receptor [1]): > 1.5 µM
Ki (C5a receptor [2]; [4]): 0.9 nM
Ki (C5a receptor [2]; [3]): 0.15 nM
B5: C5a (1-72, T1M, C27S, L72C) (protein, UniProt P01031 678-751, looked up, variant T1M C27S L72C)
C5a anaphylatoxin: MLQKKIEEIAAKYKHSVVKKCCYDGASVNNDETCEQRAARISLGPRCIKAFTECCVVASQLRANISHKDMQCGR
modifications: C5a anaphylatoxin truncated to residues 1-72

IC50 (C5a receptor [1]): 859 nM
Concentration up to which tested with agonist activity not detected (C5a receptor [1]): > 1 µM
Ki (C5a receptor [2]; [4]): 0.4 nM
Ki (C5a receptor [2]; [3]): 0.35 nM
B13: C5a (1-70, T1M, C275, M7OC) (protein, UniProt P01031 678-747, looked up, variant T1M C27S M70C)
chain: MLQKKIEEIAAKYKHSVVKKCCYDGASVNNDETCEQRAARISLGPRCIKAFTECCVVASQLRANISHKDC
modifications: C5a anaphylatoxin

Ki (C5a receptor [2]; [4]): 0.35 nM
B6: C5a (1-71, T1M, C27S, Q71R) (protein, UniProt P01031 678-751, looked up, variant T1M C27S Q71R)
C5a anaphylatoxin: MLQKKIEEIAAKYKHSVVKKCCYDGASVNNDETCEQRAARISLGPRCIKAFTECCVVASQLRANISHKDMRLGR
modifications: C5a anaphylatoxin truncated to residues 1-71
notes: as for B3

Ki (C5a receptor [2]; [4]): 0.15 nM
B9: C5a (1-71, T1M, C275, Q71H) (protein, UniProt P01031 678-751, looked up, variant T1M C27S Q71H)
C5a anaphylatoxin: MLQKKIEEIAAKYKHSVVKKCCYDGASVNNDETCEQRAARISLGPRCIKAFTECCVVASQLRANISHKDMHLGR
modifications: C5a anaphylatoxin
notes: as for B3

Concentration up to which tested with agonist activity not detected (C5a receptor [1]): > 0.8 µM
Ki (C5a receptor [2]; [4]): 0.1 nM
B11: C5a (1-71, T1M, C27S, H67F, Q71C) (protein, UniProt P01031 678-751, looked up, variant T1M C27S H67F Q71C)
C5a anaphylatoxin: MLQKKIEEIAAKYKHSVVKKCCYDGASVNNDETCEQRAARISLGPRCIKAFTECCVVASQLRANISFKDMCLGR
modifications: C5a anaphylatoxin truncated to residues 1-71

Ki (C5a receptor [2]; [4]): 0.035 nM
B4: C5a (1-71, T1M, C275, Q71L) (protein, UniProt P01031 678-751, looked up, variant T1M C27S Q71L)
C5a anaphylatoxin: MLQKKIEEIAAKYKHSVVKKCCYDGASVNNDETCEQRAARISLGPRCIKAFTECCVVASQLRANISHKDMLLGR
modifications: C5a anaphylatoxin
notes: as for B3

— US5807824A, “C5A receptor antagonists having substantially no agonist activity” (priority 1995, dated 1998)
